{
  "source": "paper PMC3651167",
  "about": "(PLoS ONE, 2013)",
  "proteins": {"B1": {"name": "wild-type hamster PrP 121–231 (domain or fragment)", "chain": "not shown"}},
  "biological_target": "the molecule itself",
  "test": "SEC",
  "data": [
    {"protein": "B1", "values": [
      {"measurement": "stoichiometry N", "result": 8}
    ]}
  ]
}
